Assay results as given in patent publication US10258699B2, “Angiopep and derivatives thereof for imaging amyloids” (University Of Science And Technology Of China, priority 2014, dated 2019).

Key:
[1] = system: amyloid deposits in APP transgenic mouse brain; experiment: Fluorescent microscopy of APP transgenic mouse's brain sections after intravenous injection of the Cy5.5 conjugate; type: in vivo; conditions: 13 mg/kg intravenous, brain removed after 30 minutes
Procedure: 30 minutes after intravenous administration (13 mg/kg), the mice were sacrificed, and then their brains were removed and frozen in liquid nitrogen. […] The brain was cut into sections of about 25 m in thickness using a frozen tissue microtome (Lecia CM1950). The sections were then placed on a fluorescent microscope (IX8, OLYMPUS) for observation and photography.

[2] = system: APP transgenic mice's brains; experiment: In vivo near-infrared imaging of APP transgenic mouse after intravenous injection; conditions: 13 mg/kg intravenous injection
Procedure: (§1) Optical in vivo imaging study was performed on IVIS imaging system, an optical imaging system from Caliper Life Sciences for imaging living body with an excitation filter set as Cy5.5, and emission spectrum band-pass filter as 640 nm. Before imaging, the mice were anaesthetized with a mixture gas of isoflurane and oxygen, and placed on an imaging plate with its face downward. White light photography (exposure time: 0.2 s) and near-infrared fluorescent imaging (exposure time: 5 s) were performed under the same field of vision (FOV) (FOV=12.5 cm, f/stop=1, Bin=1) at time points including before injection and several selected time points after intravenous injection. Each mouse received an injection dose of 13 mg/kg. White light photographs and near-infrared fluorescent images were superimposed to determine the size of intracranial portion. Finally, the imaging views were processed by using Living Image Software (Caliper Life Sciences).

[3] = system: APP transgenic mice's brains; conditions: mouse, in vivo
Procedure: as §1

[4] = target: Aβ1-42 aggregates (Homo sapiens, UniProt P05067); experiment: biochemical
Sequence of Aβ1-42 aggregates (P05067 672-713 limits assumed): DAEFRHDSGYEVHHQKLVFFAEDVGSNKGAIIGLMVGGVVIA
Procedure: Dissolving Aβ1-42 solid in PBS (PH 7.4) at a concentration of 0.25 mg/ml (55.38 uM), incubating in 37° C. water bath on a shaker for 42 h.
Preparing solutions (containing 10% DMF), containing the conjugate formed by angiopep-2 and FITC (10 uM) as well as Aβ1-42 aggregates (0, 5, 10 uM) or BSA (45 ug/mL), respectively; incubating the mixture solution at 37° C. for 30 minutes.
Preparing solutions (containing 10% DMF), containing the conjugate formed by angiopep-2 and FITC (0-3.75 uM) as well as Aβ1-42 aggregates (2.2 uM) or BSA (10 uM), respectively, incubating the mixture solution at 37° C. for 30 minutes.
Detecting the mixture solutions prepared above for their emission spectrum with fluorescence spectrophotometer, emission wavelength: 333 nm, maximum emission wavelength: 531 nm, in the range of 500-600 nm.
Plotting by using GraphPad Prism 5.0 (GraphPad Software, Inc., La Jolla, Calif., USA) and calculating equilibrium dissociation constant.

Sequence of amyloid deposits in APP transgenic mouse brain (P05067 672-711 limits assumed): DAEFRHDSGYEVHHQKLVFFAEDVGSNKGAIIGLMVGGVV

Molecule	labeling of amyloid deposits in brain in vivo [1]	aggregation in brain (near-infrared imaging) ([2]; APP mice)	time after which cleared from brain [3] [h]	passing through BBB and aggregation in brain in vivo ([2]; APP transgenic mice)	Kd [4] [µM]
conjugate formed by angiopep-2 and Cy5.5: angiopep-2 (TFFYGGSRGKRNNFKTEEY) linked N-terminally via Acp to Cy5.5; near-infrared imaging conjugate, MW 2880.24 Da	can bind to and label the amyloid deposits	aggregated in APP mice's brains	20	–	–
C[C@@H](O)[C@H](NC(=O)CCCCCNC(=S)Nc1ccc2c(c1)C(=O)OC21c2ccc(O)cc2Oc2cc(O)ccc21)C(=O)N[C@@H](Cc1ccccc1)C(=O)N[C@@H](Cc1ccccc1)C(=O)N[C@@H](Cc1ccc(O)cc1)C(=O)NCC(=O)NCC(=O)N[C@@H](CO)C(=O)N[C@@H](CCCNC(=N)N)C(=O)NCC(=O)N[C@@H](CCCCN)C(=O)N[C@@H](CCCNC(=N)N)C(=O)N[C@@H](CC(N)=O)C(=O)N[C@@H](CC(N)=O)C(=O)N[C@@H](Cc1ccccc1)C(=O)N[C@@H](CCCCN)C(=O)N[C@H](C(=O)N[C@@H](CCC(=O)O)C(=O)N[C@@H](CCC(=O)O)C(=O)N[C@@H](Cc1ccc(O)cc1)C(=O)O)[C@@H](C)O [conjugate formed by angiopep-2 and FITC]	–	–	–	can pass through BBB and aggregate in APP transgenic mice's brains in vivo	0.676
